Columns and labels:
[1] = system: T1, Gαt-rod peptide
T1 sequence: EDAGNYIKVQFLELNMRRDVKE

[2] = biological target: Bovine brain calmodulin (UniProt P62157)

Substance: PDE1A1 of bovine taste tissue (PDE of anion exchange fraction 11)
- PDE activity of fraction 11 (1 µM cGMP as substrate), 100 µM peptide [1]: The PDE activities of both fractions 6 and 11 are stimulated by the presence of the Gαt-rod peptide

Substance: PDE1A7 of bovine taste tissue (PDE of anion exchange fractions 6-7)
- PDE activity of fraction 6 (1 µM cGMP as substrate), 100 µM peptide [1]: The PDE activities of both fractions 6 and 11 are stimulated by the presence of the Gαt-rod peptide

Substance: PDE4 of bovine taste tissue (anion exchange fractions 19-23)
- cAMP hydrolyzing activity of fractions 19-23, 100 µM peptide [1]: The cAMP hydrolyzing activity of this forth peak is neither Ca^2+/CaM nor Gαt-rod peptide dependent
- cAMP hydrolyzing activity of fractions 19-23, 1 mM CaCl2 and 4 µg/ml CaM [2]: The cAMP hydrolyzing activity of this forth peak is neither Ca^2+/CaM nor Gαt-rod peptide dependent

Reference: patent US20040063148A1
